Results reported in paper PMC8782398.
“And” between values parts separate entries of the source, which are not always exact repeats. Identical values can stand only once.

T1: human delta opioid peptide (DOP) receptor in CHO cells (human), P41143
T1 chain: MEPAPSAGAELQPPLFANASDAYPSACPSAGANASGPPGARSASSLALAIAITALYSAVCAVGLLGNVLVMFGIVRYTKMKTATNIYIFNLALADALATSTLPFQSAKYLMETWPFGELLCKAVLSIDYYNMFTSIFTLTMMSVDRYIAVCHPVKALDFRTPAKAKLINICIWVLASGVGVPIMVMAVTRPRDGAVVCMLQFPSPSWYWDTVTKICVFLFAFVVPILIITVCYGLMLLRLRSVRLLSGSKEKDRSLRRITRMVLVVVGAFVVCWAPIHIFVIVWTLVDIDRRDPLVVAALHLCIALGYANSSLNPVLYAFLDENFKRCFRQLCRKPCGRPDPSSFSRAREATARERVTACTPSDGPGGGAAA


Columns and labels:
[1] = molecular target: human MOP receptor in HEK293 cells (human), P35372; assay: radioligand binding
[2] = molecular target: human MOP receptor in HEK293 cells (human), P35372
[3] = molecular target: T2, human mu opioid peptide (MOP) receptor in CHO cells (human), P35372
[4] = molecular target: T1, human delta opioid peptide (DOP) …; assay: radioligand binding
[5] = molecular target: human KOP receptor in CHO cells (human), P41145; assay: radioligand binding
[6] = molecular target: T2, human mu opioid peptide (MOP) receptor …; assay: radioligand binding

Sequence of human MOP receptor in HEK293 cells (human), P35372 (P35372 whole entry): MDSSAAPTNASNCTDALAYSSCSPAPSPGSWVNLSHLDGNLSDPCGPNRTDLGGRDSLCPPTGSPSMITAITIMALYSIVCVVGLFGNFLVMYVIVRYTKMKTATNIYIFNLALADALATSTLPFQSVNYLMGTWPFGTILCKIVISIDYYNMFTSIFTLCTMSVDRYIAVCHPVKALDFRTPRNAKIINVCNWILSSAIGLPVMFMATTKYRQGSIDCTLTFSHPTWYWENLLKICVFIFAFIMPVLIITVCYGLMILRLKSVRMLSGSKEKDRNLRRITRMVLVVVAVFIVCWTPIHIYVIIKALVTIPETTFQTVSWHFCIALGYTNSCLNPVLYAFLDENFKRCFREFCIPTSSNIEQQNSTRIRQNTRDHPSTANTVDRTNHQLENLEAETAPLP
T2 sequence (P35372 whole entry): as above
Sequence of human KOP receptor in CHO cells (human), P41145 (P41145 whole entry): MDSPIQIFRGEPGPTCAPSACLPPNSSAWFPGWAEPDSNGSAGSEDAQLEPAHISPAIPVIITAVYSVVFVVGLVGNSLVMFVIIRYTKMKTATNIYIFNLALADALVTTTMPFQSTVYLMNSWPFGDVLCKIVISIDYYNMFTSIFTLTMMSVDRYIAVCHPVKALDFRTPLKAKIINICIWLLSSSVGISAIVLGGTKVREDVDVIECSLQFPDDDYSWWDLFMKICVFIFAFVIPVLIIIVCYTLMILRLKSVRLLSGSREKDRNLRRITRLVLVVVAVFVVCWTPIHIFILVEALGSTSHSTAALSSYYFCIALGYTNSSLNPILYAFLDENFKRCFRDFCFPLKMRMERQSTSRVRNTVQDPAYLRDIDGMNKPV

Binder | other [1] | GTPγ[35S] binding, HEKMOP membranes: Emax (stimulation factor) (stimulation factor) [2] | inhibition of forskolin-stimulated cAMP formation, HEKMOP cells: Emax (% inhibition) [2] [%] | GTPγ[35S] binding, CHOMOP membranes: maximal response (stimulation factor) (stimulation factor) [3] | other [4] | other [5] | other [6]
Dermorphin-Nociceptin/Orphanin FQ (DeNO) (modifications not checked) chain 1: YAFGYPS chain 2: FGGFTGARKSARKLANQC | 9 and 8.44 | 1.53 | 77.3 | – | – | – | –
YAFGYPS (modifications not checked) [Dermorphin] | – | 1.43 | 75.6 | 2.63 | – | – | –
Dermorphin-UFP101 (De101) (modifications not checked) chain 1: YAFGYPS chain 2: FGGFTGARKSARKRKNQC | 9.28 and 8.63 | 1.44 | 73.3 | 2.71 | 7.95 | 7.61 | 9.64
